Assay results as given in US12099068B2, “Biomarkers for graft-versus-host disease” (Incyte Corporation, priority 2018, dated 2024).

B1: SELP (protein, UniProt P16109 42-830, looked up)
P-selectin: WTYHYSTKAYSWNISRKYCQNRYTDLVAIQNKNEIDYLNKVLPYYSSYYWIGIRKNNKTWTWVGTKKALTNEAENWADNEPNNKRNNEDCVEIYIKSPSAPGKWNDEHCLKKKHALCYTASCQDMSCSKQGECLETIGNYTCSCYPGFYGPECEYVRECGELELPQHVLMNCSHPLGNFSFNSQCSFHCTDGYQVNGPSKLECLASGIWTNKPPQCLAAQCPPLKIPERGNMTCLHSAKAFQHQSSCSFSCEEGFALVGPEVVQCTASGVWTAPAPVCKAVQCQHLEAPSEGTMDCVHPLTAFAYGSSCKFECQPGYRVRGLDMLRCIDSGHWSAPLPTCEAISCEPLESPVHGSMDCSPSLRAFQYDTNCSFRCAEGFMLRGADIVRCDNLGQWTAPAPVCQALQCQDLPVPNEARVNCSHPFGAFRYQSVCSFTCNEGLLLVGASVLQCLATGNWNSVPPECQAIPCTPLLSPQNGTMTCVQPLGSSSYKSTCQFICDEGYSLSGPERLDCTRSGRWTDSPPMCEAIKCPELFAPEQGSLDCSDTRGEFNVGSTCHFSCDNGFKLEGPNNVECTTSGRWSATPPTCKGIASLPTPGVQCPALTTPGQGTMYCRHHPGTFGFNTTCYFGCNAGFTLIGDSTLSCRPSGQWTAVTPACRAVKCSELHVNKPIAMNCSNLWGNFSYGSICSFHCLEGQLLNGSAQTACQENGHWSTTVPTCQAGPLTIQEALTYFGGAVASTIGLIMGGTLLALLRKRFRQKDDGKCPLNPHSHLGTYGVFTNAAFDPSP
B2: CEACAM5 (protein, UniProt P06731 35-685, looked up)
Cell adhesion molecule CEACAM5: KLTIESTPFNVAEGKEVLLLVHNLPQHLFGYSWYKGERVDGNRQIIGYVIGTQQATPGPAYSGREIIYPNASLLIQNIIQNDTGFYTLHVIKSDLVNEEATGQFRVYPELPKPSISSNNSKPVEDKDAVAFTCEPETQDATYLWWVNNQSLPVSPRLQLSNGNRTLTLFNVTRNDTASYKCETQNPVSARRSDSVILNVLYGPDAPTISPLNTSYRSGENLNLSCHAASNPPAQYSWFVNGTFQQSTQELFIPNITVNNSGSYTCQAHNSDTGLNRTTVTTITVYAEPPKPFITSNNSNPVEDEDAVALTCEPEIQNTTYLWWVNNQSLPVSPRLQLSNDNRTLTLLSVTRNDVGPYECGIQNELSVDHSDPVILNVLYGPDDPTISPSYTYYRPGVNLSLSCHAASNPPAQYSWLIDGNIQQHTQELFISNITEKNSGLYTCQANNSASGHSRTTVKTITVSAELPKPSISSNNSKPVEDKDAVAFTCEPEAQNTTYLWWVNGQSLPVSPRLQLSNGNRTLTLFNVTRNDARAYVCGIQNSVSANRSDPVTLDVLYGPDTPIISPPDSSYLSGANLNLSCHSASNPSPQYSWRINGIPQQHTQVLFIAKITPNNNGTYACFVSNLATGRNNSIVKSITVSASGTSPGLSA
B3: HO-1 (protein, UniProt P09601 1-288, looked up)
Heme oxygenase 1: MERPQPDSMPQDLSEALKEATKEVHTQAENAEFMRNFQKGQVTRDGFKLVMASLYHIYVALEEEIERNKESPVFAPVYFPEELHRKAALEQDLAFWYGPRWQEVIPYTPAMQRYVKRLHEVGRTEPELLVAHAYTRYLGDLSGGQVLKKIAQKALDLPSSGEGLAFFTFPNIASATKFKQLYRSRMNSLEMTPAVRQRVIEEAKTAFLLNIQLFEELQELLTHDTKDQSPSRAPGLRQRASNKVQDSAPVETPRGKPPLNTRSQAPLLRWVLTLSFLVATVAVGLYAM
B4: CXCL16 (protein, UniProt Q9H2A7 30-254, looked up)
C-X-C motif chemokine 16: NEGSVTGSCYCGKRISSDSPPSVQFMNRLRKHLRAYHRCLYYTRFQLLSWSVCGGNKDPWVQELMSCLDLKECGHAYSGIVAHQKHLLPTSPPISQASEGASSDIHTPAQMLLSTLQSTQRPTLPVGSLSSDKELTRPNETTIHTAGHSLAAGPEAGENQKQPEKNAGPTARTSATVPVLCLLAIIFILTAALSYVLCKRRRGQSPQSSPDLPVHYIPVAPDSNT
B5: SLITRK2 (protein, UniProt Q9H156 22-845, looked up)
SLIT and NTRK-like protein 2: RKTAKDICKIRCLCEEKENVLNINCENKGFTTVSLLQPPQYRIYQLFLNGNLLTRLYPNEFVNYSNAVTLHLGNNGLQEIRTGAFSGLKTLKRLHLNNNKLEILREDTFLGLESLEYLQADYNYISAIEAGAFSKLNKLKVLILNDNLLLSLPSNVFRFVLLTHLDLRGNRLKVMPFAGVLEHIGGIMEIQLEENPWNCTCDLLPLKAWLDTITVFVGEIVCETPFRLHGKDVTQLTRQDLCPRKSASDSSQRGSHADTHVQRLSPTMNPALNPTRAPKASRPPKMRNRPTPRVTVSKDRQSFGPIMVYQTKSPVPLTCPSSCVCTSQSSDNGLNVNCQERKFTNISDLQPKPTSPKKLYLTGNYLQTVYKNDLLEYSSLDLLHLGNNRIAVIQEGAFTNLTSLRRLYLNGNYLEVLYPSMFDGLQSLQYLYLEYNVIKEIKPLTFDALINLQLLFLNNNLLRSLPDNIFGGTALTRLNLRNNHFSHLPVKGVLDQLPAFIQIDLQENPWDCTCDIMGLKDWTEHANSPVIINEVTCESPAKHAGEILKFLGREAICPDSPNLSDGTVLSMNHNTDTPRSLSVSPSSYPELHTEVPLSVLILGLLVVFILSVCFGAGLFVFVLKRRKGVPSVPRNTNNLDVSSFQLQYGSYNTETHDKTDGHVYNYIPPPVGQMCQNPIYMQKEGDPVAYYRNLQEFSYSNLEEKKEEPATPAYTISATELLEKQATPREPELLYQNIAERVKELPSAGLVHYNFCTLPKRQFAPSYESRRQNQDRINKTVLYGTPRKCFVGQSKPNHPLLQAKPQSEPDYLEVLEKQTAISQL
B6: CLUL1 (protein, UniProt Q15846 21-466, looked up)
Clusterin-like protein 1: APTWKDKTAISENLKSFSEVGEIDADEEVKKALTGIKQMKIMMERKEKEHTNLMSTLKKCREEKQEALKLLNEVQEHLEEEERLCRESLADSWGECRSCLENNCMRIYTTCQPSWSSVKNKIERFFRKIYQFLFPFHEDNEKDLPISEKLIEEDAQLTQMEDVFSQLTVDVNSLFNRSFNVFRQMQQEFDQTFQSHFISDTDLTEPYFFPAFSKEPMTKADLEQCWDIPNFFQLFCNFSVSIYESVSETITKMLKAIEDLPKQDKAPDHGGLISKMLPGQDRGLCGELDQNLSRCFKFHEKCQKCQAHLSEDCPDVPALHTELDEAIRLVNVSNQQYGQILQMTRKHLEDTAYLVEKMRGQFGWVSELANQAPETEIIFNSIQVVPRIHEGNISKQDETMMTDLSILPSSNFTLKIPLEESAESSNFIGYVVAKALQHFKEHFKTW
B7: NCF2 (protein, UniProt P19878 1-526, looked up)
Neutrophil cytosol factor 2: MSLVEAISLWNEGVLAADKKDWKGALDAFSAVQDPHSRICFNIGCMYTILKNMTEAEKAFTRSINRDKHLAVAYFQRGMLYYQTEKYDLAIKDLKEALIQLRGNQLIDYKILGLQFKLFACEVLYNIAFMYAKKEEWKKAEEQLALATSMKSEPRHSKIDKAMECVWKQKLYEPVVIPVGKLFRPNERQVAQLAKKDYLGKATVVASVVDQDSFSGFAPLQPQAAEPPPRPKTPEIFRALEGEAHRVLFGFVPETKEELQVMPGNIVFVLKKGNDNWATVMFNGQKGLVPCNYLEPVELRIHPQQQPQEESSPQSDIPAPPSSKAPGRPQLSPGQKQKEEPKEVKLSVPMPYTLKVHYKYTVVMKTQPGLPYSQVRDMVSKKLELRLEHTKLSYRPRDSNELVPLSEDSMKDAWGQVKNYCLTLWCENTVGDQGFPDEPKESEKADANNQTTEPQLKKGSQVEALFSYEATQPEDLEFQEGDIILVLSKVNEEWLEGECKGKVGIFPKVFVEDCATTDLESTRREV
B8: VSIG2 (protein, UniProt Q96IQ7 24-327, looked up)
V-set and immunoglobulin …: VEVKVPTEPLSTPLGKTAELTCTYSTSVGDSFALEWSFVQPGKPISESHPILYFTNGHLYPTGSKSKRVSLLQNPPTVGVATLKLTDVHPSDTGTYLCQVNNPPDFYTNGLGLINLTVLVPPSNPLCSQSGQTSVGGSTALRCSSSEGAPKPVYNWVRLGTFPTPSPGSMVQDEVSGQLILTNLSLTSSGTYRCVATNQMGSASCELTLSVTEPSQGRVAGALIGVLLGVLLLSVAAFCLVRFQKERGKKPKETYGGSDLREDAIAPGISEHTCMRADSSKGFLERPSSASTVTTTKSKLPMVV
B9: IDUA (protein, UniProt P35475 28-653, looked up)
Alpha-L-iduronidase: APHLVHVDAARALWPLRRFWRSTGFCPPLPHSQADQYVLSWDQQLNLAYVGAVPHRGIKQVRTHWLLELVTTRGSTGRGLSYNFTHLDGYLDLLRENQLLPGFELMGSASGHFTDFEDKQQVFEWKDLVSSLARRYIGRYGLAHVSKWNFETWNEPDHHDFDNVSMTMQGFLNYYDACSEGLRAASPALRLGGPGDSFHTPPRSPLSWGLLRHCHDGTNFFTGEAGVRLDYISLHRKGARSSISILEQEKVVAQQIRQLFPKFADTPIYNDEADPLVGWSLPQPWRADVTYAAMVVKVIAQHQNLLLANTTSAFPYALLSNDNAFLSYHPHPFAQRTLTARFQVNNTRPPHVQLLRKPVLTAMGLLALLDEEQLWAEVSQAGTVLDSNHTVGVLASAHRPQGPADAWRAAVLIYASDDTRAHPNRSVAVTLRLRGVPPGPGLVYVTRYLDNGLCSPDGEWRRLGRPVFPTAEQFRRMRAAEDPVAAAPRPLPAGGRLTLRPALRLPSLLLVHVCARPEKPPGQVTRLRALPLTQGQLVLVWSDEHVGSKCLWTYEIQFSQDGKAYTPVSRKPSTFNLFVFSPDTGAVSGSYRVRALDYWARPGPFSDPVPYLEVPVPRGPPSPGNP
B10: PRELP (protein, UniProt P51888 21-382, looked up)
Prolargin: QPTRRPRPGTGPGRRPRPRPRPTPSFPQPDEPAEPTDLPPPLPPGPPSIFPDCPRECYCPPDFPSALYCDSRNLRKVPVIPPRIHYLYLQNNFITELPVESFQNATGLRWINLDNNRIRKIDQRVLEKLPGLVFLYMEKNQLEEVPSALPRNLEQLRLSQNHISRIPPGVFSKLENLLLLDLQHNRLSDGVFKPDTFHGLKNLMQLNLAHNILRKMPPRVPTAIHQLYLDSNKIETIPNGYFKSFPNLAFIRLNYNKLTDRGLPKNSFNISNLLVLHLSHNRISSVPAINNRLEHLYLNNNSIEKINGTQICPNDLVAFHDFSSDLENVPHLRYLRLDGNYLKPPIPLDLMMCFRLLQSVVI
B11: DAPP1 (protein, UniProt Q9UN19 1-280, looked up)
Dual adapter for …: MGRAELLEGKMSTQDPSDLWSRSDGEAELLQDLGWYHGNLTRHAAEALLLSNGCDGSYLLRDSNETTGLYSLSVRAKDSVKHFHVEYTGYSFKFGFNEFSSLKDFVKHFANQPLIGSETGTLMVLKHPYPRKVEEPSIYESVRVHTAMQTGRTEDDLVPTAPSLGTKEGYLTKQGGLVKTWKTRWFTLHRNELKYFKDQMSPEPIRILDLTECSAVQFDYSQERVNCFCLVFPFRTFYLCAKTGVEADEWIKILRWKLSQIRKQLNQGEGTIRSRSFIFK

system: plasma proteins; experiment: Plasma proteins modulated between baseline and day 28 in responders (CR, VGPR, PR; n = 19), Example 6 (Table 13); assay type: in vivo, human; details: plasma protein (OLINK NPX); responders (CR, VGPR, PR; n = 19); itacitinib 200 mg or 300 mg QD with corticosteroids; day 28 vs baseline
How it was run: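 Plasma at baseline/screening and day 28 profiled for >1000 proteins by OLINK proximity extension assay, reported as NPX (log2). Steroid-naive and steroid-refractory patients pooled. Paired and unpaired t tests, ANOVA and Pearson correlation applied; significance at P<0.05.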

Point of comparison: B7, “Fold Change, Decreased Expression from Baseline to Day 28” value −2.4951. Against it:
- B1 — higher, −1.9244
- B9 — higher, −1.3887
- B11 — higher, −1.3805

Point of comparison: B10, “Fold Change, Increased Expression from Baseline to Day 28” value 1.1833. Against it:
- B2 — higher, 1.6422
- B3 — higher, 1.3293
- B4 — higher, 1.2028
- B5 — higher, 1.2986
- B6 — higher, 1.3108
- B8 — higher, 1.2163
